Experimental data reported in patent publication US20160289698A1 (TRUSTEES OF DARTMOUTH COLLEGE, published 2016).
One block for each binder: values may come before it.

Tests used:
[1] = target: T1, KISS ME DEADLY 1 (KMD1) (Arabidopsis, UniProt Q9M8L2 1-354); assay: BiFC with ARR fragments; the weaker of the two interactions
T1 construct: Full-length protein; also called At1g80440
T1 sequence (looked up): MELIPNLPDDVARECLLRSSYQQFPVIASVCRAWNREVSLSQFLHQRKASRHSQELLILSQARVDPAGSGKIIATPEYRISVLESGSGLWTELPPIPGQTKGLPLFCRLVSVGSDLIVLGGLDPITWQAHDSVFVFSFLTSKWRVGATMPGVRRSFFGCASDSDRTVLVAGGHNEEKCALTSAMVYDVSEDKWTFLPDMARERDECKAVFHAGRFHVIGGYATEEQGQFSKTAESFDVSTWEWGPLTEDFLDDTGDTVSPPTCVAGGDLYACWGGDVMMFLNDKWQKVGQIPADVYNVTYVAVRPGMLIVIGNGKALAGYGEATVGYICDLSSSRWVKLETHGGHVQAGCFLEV

[2] = target: T1, KISS ME DEADLY 1 (KMD1); assay: yeast two-hybrid (LexA-KMD bait, X-gal)
Excerpt: (§1) The DUPLEX-A™ system (OriGene Technologies) was used for yeast two-hybrid analysis of interactions. KMD cDNAs were cloned into the pGilda bait vector, which produces an in-frame fusion with the LexA DNA-binding domain. Type-B ARR coding sequences were cloned into the pJG4-5 prey vector, which produces a B42 activation domain. The yeast strain EGY48 (MATa, trp1, his3, ura3, leu2::6 LexAop-LEU2) that contains the lacZ reporter plasmid pSH18-34 was transformed with the appropriate “bait” and “prey” plasmids. Interactions were tested on 5-bromo-4-chloro-3-indolyl-p-D-galactopyranoside (X-gal) medium (Ryu, et al. (2005) Cell 120(3): 395-406).
(§2) The KMD proteins also interacted with ARR20 (type-B ARR subfamily-3), but not with ARR19 (subfamily-2) and ARR21 (subfamily-3). […] All four KMD proteins interacted with both ARR1 and ARR12 in a BiFC assay. Strong fluorescence was detected in the nuclei of cells, consistent with the subcellular localization of the type-B ARRs (Hwang & Sheen J (2001) Nature 413(6854):383-389; Mason, et al. (2004) Plant Physiol. 135(2):927-937).

[3] = target: T2, KISS ME DEADLY 2 (KMD2) (Arabidopsis, UniProt Q9LMR5 1-359); assay: yeast two-hybrid (LexA-KMD bait, X-gal)
T2 construct: Full-length protein; LexA fusion in yeast two-hybrid, YFP^N or YFP^C fusion in BiFC; also called At1g15670
T2 sequence (looked up): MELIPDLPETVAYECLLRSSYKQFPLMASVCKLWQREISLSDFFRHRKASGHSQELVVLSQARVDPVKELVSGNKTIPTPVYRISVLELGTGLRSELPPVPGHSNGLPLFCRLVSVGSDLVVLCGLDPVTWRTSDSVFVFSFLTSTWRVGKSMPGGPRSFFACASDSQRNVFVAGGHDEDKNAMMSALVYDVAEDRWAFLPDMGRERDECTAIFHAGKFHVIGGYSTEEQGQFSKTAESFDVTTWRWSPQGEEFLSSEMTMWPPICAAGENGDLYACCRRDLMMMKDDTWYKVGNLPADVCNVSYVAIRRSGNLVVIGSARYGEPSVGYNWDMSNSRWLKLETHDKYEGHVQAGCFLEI
Excerpt: as §1, §2

[4] = target: T3, KISS ME DEADLY 3 (KMD3) (Arabidopsis, UniProt O80582 1-409); assay: yeast two-hybrid (LexA-KMD bait, X-gal)
T3 construct: Full-length protein; LexA fusion in yeast two-hybrid, YFP^N or YFP^C fusion in BiFC; also called At2g44130
T3 sequence (looked up): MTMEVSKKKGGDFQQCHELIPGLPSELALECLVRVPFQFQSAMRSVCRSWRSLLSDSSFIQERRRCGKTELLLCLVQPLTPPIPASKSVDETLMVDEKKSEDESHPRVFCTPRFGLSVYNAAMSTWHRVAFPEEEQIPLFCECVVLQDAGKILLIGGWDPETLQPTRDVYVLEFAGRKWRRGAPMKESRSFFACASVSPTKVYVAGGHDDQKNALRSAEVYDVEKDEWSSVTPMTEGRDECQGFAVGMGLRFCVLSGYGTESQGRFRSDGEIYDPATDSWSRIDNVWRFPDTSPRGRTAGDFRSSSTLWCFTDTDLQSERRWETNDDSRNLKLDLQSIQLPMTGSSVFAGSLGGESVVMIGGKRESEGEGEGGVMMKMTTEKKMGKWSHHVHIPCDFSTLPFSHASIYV
Excerpt: as §1, §2

[5] = target: T4, KISS ME DEADLY 4 (KMD4) (Arabidopsis, UniProt Q9M1Y1 1-418); assay: yeast two-hybrid (LexA-KMD bait, X-gal)
T4 construct: Full-length protein; LexA fusion in yeast two-hybrid, YFP^N or YFP^C fusion in BiFC; also called At3g59940
T4 sequence (looked up): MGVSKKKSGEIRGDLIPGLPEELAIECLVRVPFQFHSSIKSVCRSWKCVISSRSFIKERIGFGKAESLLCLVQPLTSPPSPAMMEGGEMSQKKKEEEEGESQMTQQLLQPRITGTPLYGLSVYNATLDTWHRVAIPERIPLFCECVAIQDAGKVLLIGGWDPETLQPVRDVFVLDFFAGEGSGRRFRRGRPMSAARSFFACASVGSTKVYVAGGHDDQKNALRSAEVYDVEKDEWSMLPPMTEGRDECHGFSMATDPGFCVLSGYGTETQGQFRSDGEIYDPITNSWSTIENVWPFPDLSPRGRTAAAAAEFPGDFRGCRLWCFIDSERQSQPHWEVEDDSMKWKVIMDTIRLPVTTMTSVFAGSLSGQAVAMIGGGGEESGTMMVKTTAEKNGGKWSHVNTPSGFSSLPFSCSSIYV
Excerpt: as §1, §2

[6] = target: T1, KISS ME DEADLY 1 (KMD1); assay: BiFC (YFP^N/YFP^C fusions) in Arabidopsis protoplasts
Method: (§3) Arabidopsis protoplasts were transfected as described (Kovtun, et al. (2000) Proc. Natl. Acad. Sci. USA 97(6):2940-2945) and incubated overnight at 22° C. under dim light (5 […]) and examined with an Axioplan2 fluorescent microscope (Carl Zeiss).
(§4) KMD proteins contain a conserved amino-terminal F-box motif. To determine if KMDs function as canonical F-box proteins, their interactions with known components of the Arabidopsis SCF complex were examined.

[7] = target: T2, KISS ME DEADLY 2 (KMD2); assay: as above
Method: as §3, §4

[8] = target: T3, KISS ME DEADLY 3 (KMD3); assay: as above
Method: as §3, §4

[9] = target: T4, KISS ME DEADLY 4 (KMD4); assay: as above
Method: as §3, §4

[10] = target: T5, ARR12 (Arabidopsis, UniProt P62598 1-596); assay: yeast two-hybrid
T5 construct: YFP^N or YFP^C fusion of the full-length cDNA in BiFC; also called AtARR12; type-B response regulator AtARR12
T5 sequence (looked up): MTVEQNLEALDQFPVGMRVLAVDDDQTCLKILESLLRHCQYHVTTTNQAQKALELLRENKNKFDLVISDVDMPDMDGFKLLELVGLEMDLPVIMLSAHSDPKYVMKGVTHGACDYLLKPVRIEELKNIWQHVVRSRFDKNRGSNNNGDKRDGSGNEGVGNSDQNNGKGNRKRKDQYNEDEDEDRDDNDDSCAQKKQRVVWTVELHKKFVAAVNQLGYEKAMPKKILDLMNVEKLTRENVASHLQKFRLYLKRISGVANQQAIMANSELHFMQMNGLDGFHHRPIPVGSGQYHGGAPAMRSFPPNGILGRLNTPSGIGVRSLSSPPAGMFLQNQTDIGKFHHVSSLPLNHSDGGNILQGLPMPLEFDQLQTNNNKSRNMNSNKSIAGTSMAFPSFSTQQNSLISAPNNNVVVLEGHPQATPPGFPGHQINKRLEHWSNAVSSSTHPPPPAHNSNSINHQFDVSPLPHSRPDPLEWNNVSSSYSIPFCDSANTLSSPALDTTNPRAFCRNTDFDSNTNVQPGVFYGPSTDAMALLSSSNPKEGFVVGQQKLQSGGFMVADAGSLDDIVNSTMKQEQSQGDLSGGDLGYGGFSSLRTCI

[11] = target: T3, KISS ME DEADLY 3 (KMD3); assay: yeast two-hybrid (LexA-KMD bait, B42-ARR prey, X-gal)
Excerpt: as §1, §2

[12] = target: T4, KISS ME DEADLY 4 (KMD4); assay: as above
Excerpt: as §1, §2

[13] = target: T5, ARR12; assay: yeast two-hybrid, positive control

binding result [1]: binds
B1: ARR12 (1-134) (other, Arabidopsis, UniProt P62598 1-134, looked up)
chain: MTVEQNLEALDQFPVGMRVLAVDDDQTCLKILESLLRHCQYHVTTTNQAQKALELLRENKNKFDLVISDVDMPDMDGFKLLELVGLEMDLPVIMLSAHSDPKYVMKGVTHGACDYLLKPVRIEELKNIWQHVVR
notes: range 1-134; Fused to a YFP fragment for BiFC; also called receiver domain of ARR12

binding result [2]: no binding
binding result [3]: no binding
binding result [4]: no binding
binding result [5]: no binding
B2: ARR7 (type-A ARR) (other, Arabidopsis, UniProt Q9ZWS7 1-206, looked up)
chain: MAVGEVMRMEIPAGGDLTVTTPELHVLAVDDSIVDRKVIERLLRISSCKVTTVESGTRALQYLGLDGGKGASNLKDLKVNLIVTDYSMPGLSGYDLLKKIKESSAFREVPVVIMSSENILPRIQECLKEGAEEFLLKPVKLADVKRIKQLIMRNEAEECKILSHSNKRKLQEDSDTSSSSHDDTSIKDSSCSKRMKSESENLFSLL
notes: Prey in yeast two-hybrid

binding result [2]: no binding
binding result [3]: no binding
binding result [4]: no binding
binding result [5]: no binding
B3: ARR4 (type-A ARR) (other, Arabidopsis, UniProt O82798 1-259, looked up)
chain: MARDGGVSCLRRSEMMSVGGIGGIESAPLDLDEVHVLAVDDSLVDRIVIERLLRITSCKVTAVDSGWRALEFLGLDNEKASAEFDRLKVDLIITDYCMPGMTGYELLKKIKESSNFREVPVVIMSSENVLTRIDRCLEEGAQDFLLKPVKLADVKRLRSHLTKDVKLSNGNKRKLPEDSSSVNSSLPPPSPPLTISPESSPPLTVSTESSDSSPPLSPVEIFSTSPLSSPIDDEDDDVLTSSSEESPIRRQKMRSPGLD
notes: Prey in yeast two-hybrid

binding result [6]: binds
binding result [7]: binds
binding result [8]: binds
binding result [9]: binds
B4: ASK1, an Arabidopsis Skp1 protein of the SCF complex (other, UniProt Q39255 1-160, looked up)
chain: MSAKKIVLKSSDGESFEVEEAVALESQTIAHMVEDDCVDNGVPLPNVTSKILAKVIEYCKRHVEAAASKAEAVEGAATSDDDLKAWDADFMKIDQATLFELILAANYLNIKNLLDLTCQTVADMIKGKTPEEIRTTFNIKNDFTPEEEEEVRRENQWAFE
notes: Full-length cDNA fused to YFP^N or YFP^C for BiFC

binding result [10]: binds
B5: OsKMD2 (other)
chain: MGYNELIPGLPEEVARECLIRVGFDQLPAVRRISRQWKAEVESPAYNRLRKAEGLARPALALVQARRELAEAGPAADKQSSAGGVPGNSYRMVLLDPAEGRWTPLPEVGGASGSLPLFCQVAAVDGGVEGRKRLVVVGGWDPETWAPTDSVLVYDFLTGAWRRGAAMPGPRRSFFACAAVGGKVFVAGGHDEEKNALRSALAYDPDADAWAALPDMAEERDEPRGLCVDGKFLVVGGYPTPAQGRFVGSAEWFDPATSTWSAVQEGFVDDGACPRTCSAAPEAGDRMYMLRDGHLVARHGAISSAPAAWRPVAPVPEDARTAAAVSVIPDGRVVVIGSDCHGGDQTVYTLREEAGKPASWARAPAPPEFSGHVQAACLLEI
notes: Tested in yeast two-hybrid; The fusion partner (LexA bait as for the Arabidopsis KMDs) is not restated for OsKMD2; also called rice KMD2; Os06g39370

binding result [11]: no binding
binding result [12]: no binding
B6: ARR19 (subfamily-2) (other, Arabidopsis, UniProt Q9M9B9 1-407, looked up)
chain: MLVGKISGYEDNTRSLERETSEITSLLSQFPGNTNVLVVDTNFTTLLNMKQIMKQYAYQVSIETDAEKALAFLTSCKHEINIVIWDFHMPGIDGLQALKSITSKLDLPVVIMSDDNQTESVMKATFYGACDYVVKPVKEEVMANIWQHIVRKRLIFKPDVAPPKPRMTWSEVFQPVQSHLVPTDGLDRDHFDSITINGGNGIQNMEKKQGKKPRKPRMTWTEELHQKFLEAIEIIGGIEKANPKVLVECLQEMRIEGITRSNVASHLQKHRINLEENQIPQQTQGNGWATAYGTLAPSLQGSDNVNTTIPSYLMNGPATLNQIQQNQYQNGFLTMNNNQIITNPPPPLPYLDHHHQQQHQSSPQFNYLMNNEELLQASGLSATDLELTYPSLPYDPQEYLINGYNYN

binding result [13]: binds
B7: phosphotransfer protein AtAHP2 (other, Arabidopsis, UniProt Q9ZNV8 1-156, looked up)
chain: MDALIAQLQRQFRDYTISLYQQGFLDDQFTELKKLQDDGSPDFVSEVLSLFFEDCVKLISNMARALDTTGTVDFSQVGASVHQLKGSSSSVGAKRVKTLCVSFKECCEAKNYEGCVRCLQQVDIEYKALKTKLQDMFNLEKQIIQAGGIVPQVDIN
notes: Positive control in the yeast two-hybrid test with AtARR12; construct not described
